Assay results taken from patent US20050215629.
Positions count from the first letter of the chain named.

B1: Flag-tagged PRL-1 (protein)
chain: MARMNRPAPVEVTYKNMRFLITHNPTNATLNKFIEELKKYGVTTIVRVCEATYDTTLVEKEGIHVLDWPFDDGAPPSNQIVDDWLSLVKIKFREEPGCCIAVHCVAGLGRAPVLVALALIEGGMKYEDAVQFIRQKRRGAFNSKQLLYLEKYRPKMRLRFKDSNGHRNNCCIQ
B2: GST fusion protein of human PRL-1 (protein)
chain: B1 chain
B3: Flag-tagged PRL-1R86 mutant (protein)
chain: B1 chain with S86R
B4: GST fusion protein of PRL-1R86 (protein)
chain: B1 chain with S86R
B5: GST fusion protein of human PRL-2 (protein)
chain: MNRPAPVEISYENMRFLITHNPTNATLNKFTEELKKYGVTTLVRVCDATYDKAPVEKEGIHVLDWPFDDGAPPPNQIVDDWLNLLKTKFREEPGCCVAVHCVAGLGRAPVLVALALIECGMKYEDAVQFIRQKRRGAFNSKQLLYLEKYRPKMRLRFRDTNGHCCVQ

Biological target: T1, synthetic phosphotyrosine peptide Arg-Arg-Leu-Ile-Glu-Asp-Ala-Glu-Tyr-Ala-Ala-Arg-Gly, wherein the tyrosine is phosphorylated
T1 chain: RRLIEDAEYAARG

Protein	immunocomplex PTPase assay (anti-Flag immunocomplexes from NIH3T3 transfectants)	immunocomplex PTPase assay (anti-Flag immunocomplexes from WM9 transfectants)	in vitro PTPase assay
B1	a markedly higher PTPase activity (about 23 folds) over that of control transfectants	showed phosphatase activities well above the background activity of the vector control cells	
B2			PTPase activity of recombinant PRL-1, PRL-2 and PRL-3 in dephosphorylating a synthetic phosphotyrosine peptide substrate
B3		showed phosphatase activities well above the background activity of the vector control cells	
B4			showed in vitro PTPase activity similar to that of wild type PRL-1
B5			PTPase activity of recombinant PRL-1, PRL-2 and PRL-3 in dephosphorylating a synthetic phosphotyrosine peptide substrate
